Reference: the supplement of paper PMC9732359
± gives the uncertainty stated by the source.

Assay: protein stability index of a GFP-peptide fusion (yeast GPS) (PSI 1-4); higher = more stable; sorted into four equal gates, so the index is relative within each strain
Conditions: doa10∆
How it was run: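 Plasmids in a pooled yeast library fused tiled 17-residue yeast protein peptides downstream of GFP and also expressed Cherry. Mid-log cultures grown without leucine were sorted into four equal gates by GFP/Cherry fluorescence ratio. Each gate's plasmids were PCR-amplified and Illumina-sequenced, and reads were matched to strains by barcodes. The protein stability index is derived by multiplying each gate's read frequency by its gate number and summing the results.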
Work on ISNGTINIQKKLEPKEI [SIR4] yielded a protein stability index of 2.77 ± 0.079.
ISNLTQEQVQDYVNKTN [FAS1] gave a protein stability index of 2.34 ± 0.047.
Work on ISSAKLDKFTDGGLFTL [QCR2] yielded a protein stability index of 2.42 ± 0.13.
In the case of ISSLFTITTILILGLNT [YML103C/NUP188], the protein stability index is reported as 1.51 ± 0.078.
ISSPIVANSPNKRLDVI [YDL088C/ASM4] showed a protein stability index of 2.71 ± 0.23.
With ISTPIINAVLVNDNDER [RPO31] the protein stability index was 2.25 ± 0.085.
ISYLQEVQCTSTPYLEI [PCI8] gave a protein stability index of 2.68 ± 0.16.
For ITKMLASDESLLRYGGA [RPN2], the protein stability index was 3.28 ± 0.11.
Sequence ITLLTRQRELLIAHQRS [GRR1] has a protein stability index of 2.18 ± 0.039.
For ITLRTSGELLQGIVRVY [MCD1], the protein stability index was 2.96 ± 0.075.
With ITNKHQEGLAKFGACVA [RPN2] the protein stability index was 1.78 ± 0.054.
For ITSDALEGITTTIDSLN [SMC3], the protein stability index was 2.45 ± 0.062.
For ITSIPKPLTENCKKKKK [RMP1], the protein stability index was 2.84 ± 0.12.
Work on ITVVPVVAAAEDDDNEQ [QCR6] yielded a protein stability index of 1.61 ± 0.068.
For IVAALPISEKGLTLSTT [RPP1], the protein stability index was 2.11 ± 0.087.
Sequence IVDDKQEMIDILETIFR [DIB1] has a protein stability index of 2.98 ± 0.1.
IVDGKLKTEKIFKEINE [FAS1] showed a protein stability index of 1.76 ± 0.074.
For IVFDICQILDGELDVLQ [PRP8], the protein stability index was 2.7 ± 0.11.
IVKFKQKEEGRSFTKAI [YLR335W/NUP2] showed a protein stability index of 3.13 ± 0.069.
In the case of IVLGVKDLQENLLVLRG [RPO21], the protein stability index is reported as 1.43 ± 0.078.
IVLIKGISSAYIKSATL [SNU114] gave a protein stability index of 1.92 ± 0.087.
IVPGTYIQERNPTQRPQ [RPS10A] showed a protein stability index of 3.01 ± 0.054.
For IWFPEDFISPELIIDKV [MED1], the protein stability index was 2.68 ± 0.068.
In the case of IWLIKCCYFIEWKSNHK [SRB8], the protein stability index is reported as 1.69 ± 0.067.
In the case of IWNDVVYGEGTSRVTGI [YJL039C/NUP192], the protein stability index is reported as 3.35 ± 0.15.
Work on IYAKQQEQLKQMDQQLQ [ARP7] yielded a protein stability index of 1.76 ± 0.066.
In the case of IYINKSVPTNSADAPNP [RET1], the protein stability index is reported as 3.19 ± 0.08.
With IYNGKAFNQVEIRPEML [RPS15] the protein stability index was 2.9 ± 0.12.
IYNSTDSNSEILNFLNQ [YML103C/NUP188] showed a protein stability index of 3.1 ± 0.2.
With IYPRTVIDIEIHVLEQD [SKI6] the protein stability index was 1.42 ± 0.055.
IYQIHIPYAAKLLFQEL [RPB2] showed a protein stability index of 2.64 ± 0.12.
KAANFIQNQSPQFNSPY [SWI1] gave a protein stability index of 1.99 ± 0.061.
Sequence KACKTADKLVNVTQNEQ [SRP68] has a protein stability index of 3.02 ± 0.13.
Work on KAEFSKEMTLQKNMNDL [YIL149C/MLP2] yielded a protein stability index of 3.21 ± 0.053.
KAELIKPIQNGEIIDIS [ARP9] gave a protein stability index of 3.31 ± 0.087.
In the case of KAGGECITLDQLAVRAP [RPL18A], the protein stability index is reported as 2.1 ± 0.097.
KAINQELEDVAVKKLYA [YCS4] gave a protein stability index of 3.26 ± 0.17.
Work on KAKKLIQSLPPTLKVNR [RPL38] yielded a protein stability index of 2.13 ± 0.039.
KAKRAKTGSASTVKGSV [TAF14] showed a protein stability index of 2.9 ± 0.11.
Work on KAKRSNLYTPKAEMPPE [PRP8] yielded a protein stability index of 2.98 ± 0.084.
KAMSSRAGVSQVLNRYT [RPB2] showed a protein stability index of 3.17 ± 0.11.
With KANEKKESDESKSAFSF [YJL041W/NSP1] the protein stability index was 2.95 ± 0.099.
Sequence KARNGLDYVRTPAAATS [SNF2] has a protein stability index of 2.4 ± 0.059.
Sequence KDDGAFVKFLSKKGSLE [RPL10] has a protein stability index of 3.51 ± 0.18.
With KDHDLKIPLPEVHDLIG [POP1] the protein stability index was 3.11 ± 0.12.
Work on KDILVKTGITKKDEDEE [PRE9] yielded a protein stability index of 3.37 ± 0.09.
With KDKTKNISAEIIRHEKE [SMC4] the protein stability index was 2.58 ± 0.12.
KDLKFPLPHRVQKSTKT [RPL20A] gave a protein stability index of 2.27 ± 0.053.
In the case of KDNAKISNNLALVFAAL [SRP68], the protein stability index is reported as 2.24 ± 0.051.
For KDRIIDERTKEFEKKLQ [YIL149C/MLP2], the protein stability index was 3.23 ± 0.21.
KEALLGQLLKDHLIIEP [ARP9] gave a protein stability index of 1.79 ± 0.12.
Sequence KEALQNNIFKEFTSKIG [SMC1] has a protein stability index of 2.22 ± 0.064.
In the case of KEAVFKSLGVKSLGGGA [FAS2], the protein stability index is reported as 3.26 ± 0.078.
Sequence KEEFIMMVNISVLISIP [PCI8] has a protein stability index of 1.43 ± 0.037.
KEEFSSAENRDEKDYLT [CSE2] showed a protein stability index of 2.79 ± 0.083.
Work on KEKEAAESPEEADVEMS [PUP2] yielded a protein stability index of 3.41 ± 0.11.
In the case of KEKIKGLQDEIMKIGGI [SMC4], the protein stability index is reported as 3 ± 0.09.
Sequence KELDQELIIDPLFKKAL [BRN1] has a protein stability index of 3.23 ± 0.071.
For KELFGEDEDEDLFGDSN [SSN2], the protein stability index was 3.32 ± 0.2.
In the case of KELNEKIQKLEEDDEGE [RPN7], the protein stability index is reported as 1.2 ± 0.11.
KELVECHLYSQRMHAIH [NNF1] gave a protein stability index of 1.96 ± 0.056.
In the case of KEMTLQKNMNDLLRSQL [YIL149C/MLP2], the protein stability index is reported as 3.08 ± 0.049.
KENGQLIGAATKFKGGK [SEC65] gave a protein stability index of 1.7 ± 0.057.
In the case of KEQADIYAKQQEQLKQM [ARP7], the protein stability index is reported as 1.75 ± 0.065.
For KERKLRENIAMLKRFFP [SMC1], the protein stability index was 2.38 ± 0.18.
Work on KERLVRDKKEKKQAQKQ [SMB1] yielded a protein stability index of 3.25 ± 0.097.
KERNSLKKLKAMNDACY [BRR2] gave a protein stability index of 3.18 ± 0.086.
In the case of KERTKSLEHELKRSTEL [YIL149C/MLP2], the protein stability index is reported as 3.04 ± 0.15.
With KESDLLEETRTTIGDTT [BRN1] the protein stability index was 2.47 ± 0.051.
In the case of KETTIEKLSSEIENLDK [YIL149C/MLP2], the protein stability index is reported as 2.94 ± 0.068.
KEYELLTLQEDYIKDEQ [RPT3] showed a protein stability index of 3.53 ± 0.12.
For KEYENHSGELMRQQSKE [SMC1], the protein stability index was 2.83 ± 0.1.
With KFANQLHDEYLVSMRYP [RPN3] the protein stability index was 2.35 ± 0.098.
KFGYILCVLDYDNIDIQ [RPB7] showed a protein stability index of 2.02 ± 0.1.
Work on KFMELERKTLERQQENL [SWI3] yielded a protein stability index of 2.76 ± 0.17.
KFNKSKAKFTSLAVRSL [YCS4] showed a protein stability index of 2.09 ± 0.065.
In the case of KFPETSYPILNESSTFL [SIN4], the protein stability index is reported as 2.47 ± 0.04.
In the case of KFSDLKFILQILQILNL [YML103C/NUP188], the protein stability index is reported as 3.05 ± 0.15.
With KGDRALLVKLSKRLPLR [BRR2] the protein stability index was 2.47 ± 0.047.
Sequence KGEQIAIFPYQDPIFGS [ECM29] has a protein stability index of 2.09 ± 0.048.
KGEVVLVNIRTQTSKEQ [ITC1] gave a protein stability index of 2.4 ± 0.075.
KGEVYTIPLGGSVHKLP [PRE3] showed a protein stability index of 2.97 ± 0.065.
Work on KGNLLEGKKVMAPYLPG [RPN2] yielded a protein stability index of 2.14 ± 0.061.
In the case of KGSRFISTLQVKLYGRE [RPB2], the protein stability index is reported as 2.06 ± 0.065.
For KGVYLILSEILCQINKC [YML103C/NUP188], the protein stability index was 1.86 ± 0.055.
In the case of KHEDFVEGISEVQARKS [RPT5], the protein stability index is reported as 3.7 ± 0.24.
KHGAKKVAKRTKIKPFI [RPL27A] gave a protein stability index of 2.91 ± 0.081.
KHISASIDNDFSEEKAE [YAR002W/NUP60] showed a protein stability index of 3.04 ± 0.082.
In the case of KHITVRLTAKRLIEHDP [SRP14], the protein stability index is reported as 2.35 ± 0.057.
KHYLEDKLKVYKQAMNE [SNF5] gave a protein stability index of 3.19 ± 0.093.
Sequence KIEGCISQVSSIHAIGS [RPB7] has a protein stability index of 1.9 ± 0.11.
KIHLYEKKLEDYCRILS [YGL172W/NUP49] gave a protein stability index of 1.54 ± 0.11.
With KIIDNPKSFLKKDQSVL [YMR129W/POM152] the protein stability index was 3.06 ± 0.083.
KIKFDESSKLMTVTKVS [BRR2] showed a protein stability index of 1.75 ± 0.099.
With KIPDTYTANTSAQSIAS [YAR002W/NUP60] the protein stability index was 1.99 ± 0.049.
With KIQFHIHFADVAHITTK [RGR1] the protein stability index was 2.88 ± 0.092.
KISNSKLLSLLRSKTSA [SIR4] gave a protein stability index of 2.19 ± 0.058.

Same assay, conditions: pdr5∆
In the case of ISMNAPVFVDLEGETDP [RPO26], the protein stability index is reported as 2.78 ± 0.3.
In the case of ISNGTINIQKKLEPKEI [SIR4], the protein stability index is reported as 2.89 ± 0.075.
